Measurements published in patent publication US20240116985A1 (published 2024).
Starred links: 1 amine or outer side, 2 acyl side, 3 side chain; linkers in the order of their positions; H or OH if unused. Positions of bridges follow the written chain, without caps; N, C: chain ends. Non-standard residues stand in square brackets, D forms with d. Primed or numbered codes have the meaning given here. *: point of attachment. PyrS2″ = (S)-3-amino-1-((pent-4-en-1-yloxy)carbonyl)pyrrolidine-3-carboxylic acid (stapling residue), C=CCCCOC(=O)N1CC[C@@](N[*:1])(C(=O)[*:2])C1; (bismethoxyethylamine)GlnR = [bismethoxyethylamine]GlnR, N5,N5-bis(2-methoxyethyl)-L-glutamine, COCCN(CCOC)C(=O)CC[C@H](N[*:1])C(=O)[*:2]; B5(16) = 2-amino-2-(pent-4-en-1-yl)hept-6-enoic acid = 2,2-bis(4-pentenyl)glycine (stitching residue), C=CCCCC(CCCC=C)(N[*:1])C(=O)[*:2]; B5(4) = 2,2-bis(4-pentenyl)glycine = 2-amino-2-(pent-4-en-1-yl)hept-6-enoic acid (stitching residue), C=CCCCC(CCCC=C)(N[*:1])C(=O)[*:2]; TfeGA = (S)-2-amino-3-((carboxymethyl)(2,2,2-trifluoroethyl)amino)propanoic acid, O=C([C@H](CN(CC(=O)[*:3])CC(F)(F)F)N[*:1])[*:2]; (4Pippip)GlnR″ = (S)-5-([1,4'-bipiperidin]-1'-yl)-2-amino-5-oxopentanoic acid, O=C(CC[C@H](N[*:1])C(=O)[*:2])N1CCC(N2CCCCC2)CC1; PyrS2 = (S)-3-amino-1-((pent-4-en-1-yloxy)carbonyl)pyrrolidine-3-carboxylic acid, C=CCCCOC(=O)N1CC[C@@](N[*:1])(C(=O)[*:2])C1; (AcPpz)GlnR″ = (S)-5-(4-acetylpiperazin-1-yl)-2-amino-5-oxopentanoic acid, CC(=O)N1CCN(C(=O)CC[C@H](N[*:1])C(=O)[*:2])CC1; B5(3) = 2,2-bis(4-pentenyl)glycine (stitching residue), C=CCCCC(CCCC=C)(N[*:1])C(=O)[*:2]; Phe(3-COOH) = N[C@@H](Cc1cccc(C(=O)O)c1)C(=O)O; Phe(2-CF3) = N[C@@H](Cc1ccccc1C(F)(F)F)C(=O)O; Phe(2-Cl) = N[C@@H](Cc1ccccc1Cl)C(=O)O; dαMeGly(allyl) = C=CC[C@@](C)(N)C(=O)O; Bta = N[C@@H](Cc1csc2ccccc12)C(=O)O; αAllylPro = C=CC[C@@]1(C(=O)O)CCCN1; tBuAla = CC(C)(C)C[C@H](N)C(=O)O; 3Thi = N[C@@H](Cc1ccsc1)C(=O)O; Cha = N[C@@H](CC1CCCCC1)C(=O)O; S8 = C=CCCCCCC[C@](C)(N)C(=O)O; Thr(ol) = C[C@@H](O)[C@H](N)CO; Phe(ol) = N[C@H](CO)Cc1ccccc1; R5 = C=CCCC[C@@](C)(N)C(=O)O; NH(CH2)6NH2 = NCCCCCCN*; Abu = CC[C@H](N)C(=O)O; Aib = CC(C)(N)C(=O)O

How the values were obtained:
Experiment in all cases: cell-based or functional assay
B-cat-Halo = molecular target: T1, B-cat-Halo (UniProt P35222 1-781)
T1 sequence (looked up): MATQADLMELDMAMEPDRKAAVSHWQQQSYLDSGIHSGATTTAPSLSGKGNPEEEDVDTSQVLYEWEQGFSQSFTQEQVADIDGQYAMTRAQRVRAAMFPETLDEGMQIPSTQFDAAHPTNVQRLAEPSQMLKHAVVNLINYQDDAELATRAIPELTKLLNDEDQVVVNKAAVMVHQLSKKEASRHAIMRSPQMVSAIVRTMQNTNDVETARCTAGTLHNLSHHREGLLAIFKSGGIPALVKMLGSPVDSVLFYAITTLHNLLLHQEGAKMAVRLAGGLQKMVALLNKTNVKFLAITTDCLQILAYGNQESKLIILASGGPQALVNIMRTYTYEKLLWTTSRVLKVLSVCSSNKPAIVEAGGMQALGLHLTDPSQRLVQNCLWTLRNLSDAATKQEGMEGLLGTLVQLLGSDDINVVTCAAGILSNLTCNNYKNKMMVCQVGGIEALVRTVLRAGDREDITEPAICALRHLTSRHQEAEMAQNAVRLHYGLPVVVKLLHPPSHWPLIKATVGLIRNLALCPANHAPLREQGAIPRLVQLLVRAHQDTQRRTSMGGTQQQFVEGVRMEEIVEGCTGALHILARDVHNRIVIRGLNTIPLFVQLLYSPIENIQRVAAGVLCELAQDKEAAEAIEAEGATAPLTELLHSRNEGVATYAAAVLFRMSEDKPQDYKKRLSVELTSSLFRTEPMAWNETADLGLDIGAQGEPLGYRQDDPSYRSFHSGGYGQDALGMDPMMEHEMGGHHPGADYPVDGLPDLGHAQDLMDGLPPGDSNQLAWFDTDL

[1] = molecular target: T2, B-cat-Halo (beta-catenin HaloTag NanoBRET construct expressed in HEK293 cells) (UniProt P35222 2-781)
T2 sequence (looked up): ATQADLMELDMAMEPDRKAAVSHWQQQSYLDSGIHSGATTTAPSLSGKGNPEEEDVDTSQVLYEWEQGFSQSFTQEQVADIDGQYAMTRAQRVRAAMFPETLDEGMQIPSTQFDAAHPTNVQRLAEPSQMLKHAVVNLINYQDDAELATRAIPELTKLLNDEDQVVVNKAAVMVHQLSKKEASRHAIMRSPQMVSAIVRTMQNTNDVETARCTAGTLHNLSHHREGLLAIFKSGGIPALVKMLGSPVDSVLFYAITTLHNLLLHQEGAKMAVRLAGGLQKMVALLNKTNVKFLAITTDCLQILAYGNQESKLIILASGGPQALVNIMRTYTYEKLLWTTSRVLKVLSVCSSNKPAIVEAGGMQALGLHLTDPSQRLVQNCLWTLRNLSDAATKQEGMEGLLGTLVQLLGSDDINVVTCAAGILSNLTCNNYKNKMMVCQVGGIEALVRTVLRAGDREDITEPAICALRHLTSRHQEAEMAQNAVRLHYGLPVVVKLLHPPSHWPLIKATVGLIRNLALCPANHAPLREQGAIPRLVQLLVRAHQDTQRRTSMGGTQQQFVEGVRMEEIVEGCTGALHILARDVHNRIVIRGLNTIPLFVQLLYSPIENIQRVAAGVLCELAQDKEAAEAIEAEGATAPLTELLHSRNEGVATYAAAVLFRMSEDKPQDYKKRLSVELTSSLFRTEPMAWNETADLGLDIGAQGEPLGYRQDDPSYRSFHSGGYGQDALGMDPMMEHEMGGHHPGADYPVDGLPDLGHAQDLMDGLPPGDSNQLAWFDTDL

[2] = molecular target: T3, B-cat-Halo (beta-catenin HaloTag fusion expressed in HEK293 cells) (UniProt P35222 1-781)
T3 sequence (looked up): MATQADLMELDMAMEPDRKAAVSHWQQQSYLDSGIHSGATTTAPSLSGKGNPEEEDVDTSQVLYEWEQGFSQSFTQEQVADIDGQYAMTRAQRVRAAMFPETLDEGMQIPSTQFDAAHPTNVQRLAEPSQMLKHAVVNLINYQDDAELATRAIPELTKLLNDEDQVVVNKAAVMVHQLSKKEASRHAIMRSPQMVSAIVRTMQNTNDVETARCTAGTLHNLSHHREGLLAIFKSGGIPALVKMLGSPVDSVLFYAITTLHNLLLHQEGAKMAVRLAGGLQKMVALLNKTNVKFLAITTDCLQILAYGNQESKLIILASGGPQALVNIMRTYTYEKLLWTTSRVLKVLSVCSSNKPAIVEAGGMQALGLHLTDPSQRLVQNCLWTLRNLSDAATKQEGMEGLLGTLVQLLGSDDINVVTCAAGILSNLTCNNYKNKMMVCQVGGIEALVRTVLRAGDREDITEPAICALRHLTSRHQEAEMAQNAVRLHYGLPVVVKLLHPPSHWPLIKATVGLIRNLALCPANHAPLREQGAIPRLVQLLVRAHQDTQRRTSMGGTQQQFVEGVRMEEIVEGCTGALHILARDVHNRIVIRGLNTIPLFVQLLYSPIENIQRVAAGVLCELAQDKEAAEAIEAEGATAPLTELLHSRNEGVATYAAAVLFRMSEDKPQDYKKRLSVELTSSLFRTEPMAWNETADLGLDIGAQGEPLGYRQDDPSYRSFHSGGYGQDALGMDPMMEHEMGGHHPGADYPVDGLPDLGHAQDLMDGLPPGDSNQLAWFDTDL

Row | Binder | NanoBRET Abs IC50 (B-cat-Halo) | NanoBRET Abs IC50 [1] | other results
1 | Ac-[αAllylPro]D[Cha][B5(16)]DDAAFN[PyrS2″][Phe(2-Cl)][Bta]Q-NH2 (staple 1-4, 4-11) [I-1040] | 9.3 µM | – | –
2 | Ac-[αAllylPro]D[tBuAla][B5(3)]DDAAFT[S8][Phe(2-Cl)][Bta]Q-NH2 (staple 1-4, 4-11; also: earlier eluting staple isomer) [I-1086] | – | 10.1 µM | –
3 | Ac-[αAllylPro]D[tBuAla][B5(4)]D[Phe(3-COOH)][Aib]AF[Abu][PyrS2″][3Thi][Bta][(bismethoxyethylamine)GlnR]-NH2 (staple 1-4, 4-11) [I-2559] | – | – | NanoBRET Abs IC50 [2]: 3.8 µM
4 | Ac-[αAllylPro]D[tBuAla][B5(3)]DDAAFT[S8][Phe(2-Cl)][Bta]Q-NH2 (staple 1-4, 4-11; also: later eluting staple isomer) [I-1087] | – | 9.3 µM | –
5 | Ac-[αAllylPro]D[tBuAla][B5(3)]DEAAFT[S8][Phe(2-Cl)][Bta]T-NH2 (staple 1-4, 4-11) [I-1091] | – | 11.4 µM | –
6 | Ac-[αAllylPro]D[Cha][B5(16)]DDAAFS[PyrS2″][Phe(2-Cl)][Bta]Q-NH2 (staple 1-4, 4-11) [I-1044] | 17.6 µM | – | –
7 | Ac-[αAllylPro]D[tBuAla][B5(4)]D[Phe(3-COOH)][Aib]AF[Abu][PyrS2″][3Thi][Bta][(4Pippip)GlnR″]-NH2 (staple 1-4, 4-11) [I-2560] | – | – | NanoBRET Abs IC50 [2]: 19.3 µM
8 | Ac-[R5]D[tBuAla][B5(4)]D[Phe(3-COOH)]AAFL[PyrS2″][Phe(2-CF3)][Bta]Q-NH2 (staple 1-4, 4-11; not fully specified; printed as Ac-R5-Asp-Npg-B5-Asp-3COOHF-Ala-Ala-Phe-Leu-PyrS2-2F3MeF-BztA-Gln-NH2) [I-2565] | – | – | NanoBRET Abs IC50 [2]: 21 µM
9 | Ac-[αAllylPro]D[Cha][B5(4)]DDAAFT[PyrS2″][Phe(2-Cl)][Bta]S-NH2 (staple 1-4, 4-11) [I-1048] | 8.8 µM | – | –
10 | Ac-[αAllylPro]D[tBuAla][B5(3)]DDAAFN[PyrS2″][Phe(2-Cl)][Bta][Thr(ol)] (staple 1-4, 4-11) [I-1082] | – | 14.1 µM | –
11 | Ac-[αAllylPro]D[tBuAla][B5(3)]DDAAFT[S8][Phe(2-Cl)][Bta]T-NH2 (staple 1-4, 4-11) [I-1090] | – | 6.1 µM | –
12 | Ac-[αAllylPro]D[Cha][B5(4)]DDAAFS[PyrS2][Phe(2-Cl)][Bta]S-NH2 (staple 1-4, 4-11) [I-1050] | 24.8 µM | – | –
13 | Ac-[αAllylPro]D[tBuAla][B5(4)]DDAAFL[PyrS2″]F[Bta]Q-NH2 (staple 1-4, 4-11) [I-1072] | – | 10.5 µM | –
14 | Ac-[αAllylPro]D[tBuAla][B5(3)]DDAAFN[PyrS2″][Phe(2-Cl)][Bta][Phe(ol)] (staple 1-4, 4-11) [I-1083] | – | 18.8 µM | –
15 | Ac-P[dαMeGly(allyl)]D[tBuAla][B5(4)]D[Phe(3-COOH)]AAFL[PyrS2″][Phe(2-CF3)][Bta]Q-NH2 (staple 5-12, 2-5; also: -CH=CH- in each staple reduced to -CH2-CH2-) [I-2572] | – | – | NanoBRET Abs IC50 [2]: > 20 µM
16 | Ac-[R5]D[tBuAla][B5(4)]D[Phe(3-COOH)]AAFL[PyrS2″][Phe(2-CF3)][Bta]Q-NH2 (staple 1-4, 4-11; also: -CH=CH- in each staple reduced to -CH2-CH2-) [I-2571] | – | – | NanoBRET Abs IC50 [2]: 24 µM
17 | Ac-[αAllylPro]D[tBuAla][B5(4)]DDAAFN[PyrS2″][Phe(2-Cl)][Bta]Q-NHEt (staple 1-4, 4-11) [I-1079] | – | 19.7 µM | –
18 | Ac-[αAllylPro]D[tBuAla][B5(3)]DDAAFT[S8][Phe(2-Cl)][Bta][dT]-NH2 (staple 1-4, 4-11) [I-1092] | – | 7.7 µM | –
19 | Ac-[αAllylPro]D[tBuAla][B5(3)]DEAAFT[S8][Phe(2-Cl)][Bta]Q-NH2 (staple 1-4, 4-11; also: earlier eluting staple isomer) [I-1088] | – | 6.3 µM | –
20 | Ac-[αAllylPro]D[Cha][B5(16)]DDAAFT[PyrS2″][Phe(2-Cl)][Bta]Q-NH2 (staple 1-4, 4-11) [I-1042] | 11.4 µM | – | –
21 | Ac-[αAllylPro]D[tBuAla][B5(4)]D[Phe(3-COOH)][Aib]AF[Abu][PyrS2″][3Thi][Bta][(AcPpz)GlnR″]-NH2 (staple 1-4, 4-11) [I-2561] | – | – | NanoBRET Abs IC50 [2]: 7.2 µM
22 | Ac-[αAllylPro]D[tBuAla][B5(3)]DEAAFT[S8][Phe(2-Cl)][Bta]Q-NH2 (staple 1-4, 4-11; also: later eluting staple isomer) [I-1089] | – | 8.9 µM | –
23 | Ac-[αAllylPro]D[tBuAla][B5(4)]D[TfeGA]AAFT[PyrS2][Phe(2-Cl)][Bta]Q-{NH(CH2)6NH2} (staple 1-4, 4-11) [I-1061] | 10.3 µM | – | –
24 | Ac-[αAllylPro]D[tBuAla][B5(4)]DDAAFL[PyrS2″][Phe(2-Cl)][Bta]Q-NH2 (staple 1-4, 4-11) [I-1062] | 4.7 µM | – | –
25 | Ac-[αAllylPro]D[Cha][B5(16)]DDAAFN[PyrS2″][Phe(2-Cl)][Bta]S-NH2 (staple 1-4, 4-11) [I-1046] | 20.5 µM | – | –
26 | Ac-[dαMeGly(allyl)]D[tBuAla][B5(4)]D[Phe(3-COOH)]AAFL[PyrS2″][Phe(2-CF3)][Bta]Q-NH2 (staple 1-4, 4-11) [I-2563] | – | – | NanoBRET Abs IC50 [2]: 17 µM
